Experimental data from IntAct's records for PubMed 17690245.

Tests used:
ccnt1_human CCNT1 = ccnt1_human CCNT1 (UniProt O60563)
cdk9_human CDK9 = cdk9_human CDK9 (UniProt P50750)

Bromodomain-containing protein 4 (Homo sapiens) (from UniProt O60885-1) R1337P
effect of a mutation on the interaction (ccnt1_human CCNT1): disrupting interaction | effect of a mutation on the interaction (cdk9_human CDK9): disrupting interaction
